The values that follow come from patent US20130323302A1.

This assay deals with recombinant VEGF (UniProt P15692). The experiment in a line: cell-based or functional assay.
Sequence of recombinant VEGF (P15692 other isoform, or with tags, fused parts or gaps limits assumed): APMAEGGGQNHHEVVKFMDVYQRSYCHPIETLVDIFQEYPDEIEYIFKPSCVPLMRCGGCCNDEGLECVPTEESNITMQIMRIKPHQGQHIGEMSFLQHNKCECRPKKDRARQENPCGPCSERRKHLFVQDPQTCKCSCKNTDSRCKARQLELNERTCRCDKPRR

As for “soluble Fms-related tyrosine kinase-1 (sFLT-1) protein, human, secreted by rAAV.sFlt-1-transduced 293 cells (from UniProt P17948 27-450)”, the inhibition of VEGF-induced proliferation of HUVECs (MTT assay), 40 µL conditioned medium from rAAV.sFlt-1-transduced 293 cells came out at 32%.
